For one molecule, EC50 results are on record in article doi:10.1101/2020.10.25.354548 (bioRxiv, 2020).

For this experiment, the target named is SARS-CoV-2 spike protein receptor binding domain (RBD) (SARS-CoV-2, UniProt P0DTC2). In words: ELISA. Background: An ELISA detects its analyte on a solid surface through an enzyme-linked reagent.

B1: bovine ACE2-Fc (bovine angiotensin I converting enzyme 2 fused to human IgG1 Fc) (Fc fusion)
chain: QSTTEEQAKTFLEKFNHEAEDLSYQSSLASWNYNTNITDENVQKMNEARAKWSAFYEEQSRMAKTYSLEEIQNLTLKRQLKALQHSGTSALSAEKSKRLNTILNKMSTIYSTGKVLDPNTQECLALEPGLDDIMENSRDYNRRLWAWEGWRAEVGKQLRPLYEEYVVLENEMARANNYEDYGDYWRGDYEVTGAGDYDYSRDQLMKDVERTFAEIKPLYEQLHAYVRAKLMHTYPSYISPTGCLPAHLLGDMWGRFWTNLYSLTVPFEHKPSIDVTEKMENQSWDAERIFKEAEKFFVSISLPYMTQGFWDNSMLTEPGDGRKVVCHPTAWDLGKGDFRIKMCTKVTMDDFLTAHHEMGHIQYDMAYAAQPYLLRNGANEGFHEAVGEIMSLSAATPHYLKALGLLAPDFHEDNETEINFLLKQALTIVGTLPFTYMLEKWRWMVFKGEIPKQQWMEKWWEMKREIVGVVEPLPHDETYCDPACLFHVAEDYSFIRYYTRTIYQFQFHEALCKTAKHEGALFKCDISNSTEAGQRLLQMLRLGKSEPWTLALENIVGIKTMDVKPLLNYFEPLFTWLKEQNRNSFVGWSTEWTPYSDQSIKVRISLKSALGENAYEWNDNEMYLFQSSVAYAMRKYFSEARNETVLFGEDNVWVSDKKPRISFKFFVTSPNNVSDIIPRTEVENAIRLSRDRINDVFQLDDNSLEFLGIQPTLGPPYEPPVT
By EC50 is commonly meant the concentration at which the effect is half-maximal. The molecule B1 came in with a half-maximal effective concentration (EC50) of 1.3 nM. This lies in the single-digit nanomolar range.
